In article doi:10.1101/2021.11.18.469126:

Molecular target: TASK3 (UniProt Q9NPC2)
Assay: fluorescence polarisation

Sequence of UniProt Q9NPC2 (Q9NPC2 whole entry): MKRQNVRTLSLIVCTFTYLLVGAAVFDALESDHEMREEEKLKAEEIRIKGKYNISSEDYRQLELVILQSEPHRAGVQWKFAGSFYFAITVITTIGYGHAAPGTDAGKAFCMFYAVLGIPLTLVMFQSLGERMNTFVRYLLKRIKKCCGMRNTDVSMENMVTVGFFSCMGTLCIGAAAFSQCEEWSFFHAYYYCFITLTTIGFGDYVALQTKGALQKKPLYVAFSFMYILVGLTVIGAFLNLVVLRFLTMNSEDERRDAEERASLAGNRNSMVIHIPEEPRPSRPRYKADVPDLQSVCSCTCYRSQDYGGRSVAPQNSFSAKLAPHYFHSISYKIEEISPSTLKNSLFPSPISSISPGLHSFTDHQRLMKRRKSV

“14-3-3 protein (from UniProt P31947 1-248) (natural protein)” gave a Kd of 4.05 µM and a cooperativity factor α (stabilisation of the pair by fusicoccin-A) of 1340.
